Measurements as given in patent US20090163698A1, “Method for Preparing Antibody Conjugates” (priority 2007, published 2009).

Target: human αVβ3/5 integrin (human) (UniProt P06756)
Experiment: cell-based or functional assay
Design: IC50 of doxorubicin, cell viability, colon cancer HT29 cells, targeted liposomes 40:1 / IC50 of doxorubicin, cell viability, colon cancer HT29 cells, targeted liposomes 90:1 / IC50 of doxorubicin, cell viability, melanoma A375.S2 cells, targeted liposomes 40:1 / IC50 of doxorubicin, cell viability, melanoma A375.S2 cells, targeted liposomes 90:1 / IC50 of doxorubicin, cell viability, ovarian cancer A2780 cells, targeted liposomes 40:1 / IC50 of doxorubicin, cell viability, ovarian cancer A2780 cells, targeted liposomes 90:1: unit not given beside the values

human αVβ3/5 integrin (human), sequence (P06756 31-1048): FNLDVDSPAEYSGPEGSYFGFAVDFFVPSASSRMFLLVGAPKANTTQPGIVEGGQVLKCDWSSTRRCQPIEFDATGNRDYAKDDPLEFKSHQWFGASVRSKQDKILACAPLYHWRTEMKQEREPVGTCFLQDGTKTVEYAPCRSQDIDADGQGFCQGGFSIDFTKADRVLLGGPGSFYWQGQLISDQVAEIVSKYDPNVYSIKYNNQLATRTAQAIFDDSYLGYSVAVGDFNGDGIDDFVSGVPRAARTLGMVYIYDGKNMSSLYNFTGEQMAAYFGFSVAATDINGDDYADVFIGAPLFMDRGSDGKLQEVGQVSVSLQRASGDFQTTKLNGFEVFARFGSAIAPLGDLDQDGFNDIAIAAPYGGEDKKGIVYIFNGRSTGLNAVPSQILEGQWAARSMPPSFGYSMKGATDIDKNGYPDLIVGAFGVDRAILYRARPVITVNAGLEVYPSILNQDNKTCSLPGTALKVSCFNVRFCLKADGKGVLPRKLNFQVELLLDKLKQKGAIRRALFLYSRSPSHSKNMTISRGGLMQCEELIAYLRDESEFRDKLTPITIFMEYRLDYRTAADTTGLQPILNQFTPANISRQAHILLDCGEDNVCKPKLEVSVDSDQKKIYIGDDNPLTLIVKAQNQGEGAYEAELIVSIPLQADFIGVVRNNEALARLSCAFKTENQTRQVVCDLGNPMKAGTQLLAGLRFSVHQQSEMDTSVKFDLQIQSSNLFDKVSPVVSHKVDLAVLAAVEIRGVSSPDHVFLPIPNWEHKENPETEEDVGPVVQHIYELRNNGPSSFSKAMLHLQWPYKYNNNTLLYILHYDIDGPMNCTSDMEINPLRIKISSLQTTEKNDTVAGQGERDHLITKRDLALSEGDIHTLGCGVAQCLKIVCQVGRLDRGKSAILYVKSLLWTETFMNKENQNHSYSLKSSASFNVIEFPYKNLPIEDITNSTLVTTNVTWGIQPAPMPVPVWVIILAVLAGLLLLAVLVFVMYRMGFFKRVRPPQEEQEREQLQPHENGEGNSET

CNTO 95 Fab′ (anti-alpha-V Fab′ made by pepsin cleavage of the parent antibody, reduction and reoxidation), conjugated to MalPEG-DSPE on the surface of liposomes
IC50 of doxorubicin, cell viability, colon cancer HT29 cells, targeted liposomes 40:1: 180
IC50 of doxorubicin, cell viability, colon cancer HT29 cells, targeted liposomes 90:1: > 200
IC50 of doxorubicin, cell viability, melanoma A375.S2 cells, targeted liposomes 40:1: 15
IC50 of doxorubicin, cell viability, melanoma A375.S2 cells, targeted liposomes 90:1: 7
IC50 of doxorubicin, cell viability, ovarian cancer A2780 cells, targeted liposomes 40:1: 12
IC50 of doxorubicin, cell viability, ovarian cancer A2780 cells, targeted liposomes 90:1: 7
Increase (ratio of IC50 of liposome-entrapped doxorubicin to IC50 of 90:1 targeted liposomes), A375.S2 cells: 29 fold
Increase (ratio of IC50 of liposome-entrapped doxorubicin to IC50 of 90:1 targeted liposomes), A549 cells: 1 fold
Increase (ratio of IC50 of liposome-entrapped doxorubicin to IC50 of 90:1 targeted liposomes), A2780 cells: 29 fold
Increase (ratio of IC50 of liposome-entrapped doxorubicin to IC50 of 90:1 targeted liposomes), HT29 cells: 1.1 fold
Increase (ratio of IC50 of liposome-entrapped doxorubicin to IC50 of 90:1 targeted liposomes), MDA-MB-231 cells: 5 fold
